Results from publication PMC4117747, “The N-terminus of Mcm10 is important for interaction with the 9-1-1 clamp and in resistance to DNA damage” (Nucleic Acids Research, 2014).

Target: T1, Mcm10Δ150 (LexA fusion) (S. cerevisiae, UniProt P32354 151-571)
T1 construct: Mcm10, budding yeast, first 150 amino acids deleted; also called pBTM116-LEXA-mcm10Δ150; LexA-tagged Mcm10Δ150; source: yeast two-hybrid fusion (pBTM116); also overexpressed from the ADH1 promoter in yeast, in whole cell extract, for Co-IP
T1 sequence (looked up): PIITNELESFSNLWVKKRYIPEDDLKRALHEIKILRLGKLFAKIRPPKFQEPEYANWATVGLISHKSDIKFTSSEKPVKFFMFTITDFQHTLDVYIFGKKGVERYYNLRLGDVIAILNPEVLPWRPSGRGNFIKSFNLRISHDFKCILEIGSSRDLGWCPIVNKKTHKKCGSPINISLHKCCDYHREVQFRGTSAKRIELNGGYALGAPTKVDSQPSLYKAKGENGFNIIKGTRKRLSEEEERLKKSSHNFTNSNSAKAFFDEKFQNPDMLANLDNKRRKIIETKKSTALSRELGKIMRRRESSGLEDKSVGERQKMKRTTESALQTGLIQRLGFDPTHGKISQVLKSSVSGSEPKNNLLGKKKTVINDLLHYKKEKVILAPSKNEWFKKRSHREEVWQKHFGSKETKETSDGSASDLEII
Experiment: two-hybrid; yeast two-hybrid with pBTM116 (LexA) and pACT2 fusions; β-galactosidase activity in cell extracts, in triplicate from at least three clones
Settings: partners not purified

B1: Mcm10 (LexA fusion, wild type) (natural protein, S. cerevisiae, UniProt P32354 1-571, looked up)
chain: MNDPREILAVDPYNNITSDEEDEQAIARELEFMERKRQALVERLKRKQEFKKPQDPNFEAIEVPQSPTKNRVKVGSHNATQQGTKFEGSNINEVRLSQLQQQPKPPASTTTYFMEKFQNAKKNEDKQIAKFESMMNARVHTFSTDEKKYVPIITNELESFSNLWVKKRYIPEDDLKRALHEIKILRLGKLFAKIRPPKFQEPEYANWATVGLISHKSDIKFTSSEKPVKFFMFTITDFQHTLDVYIFGKKGVERYYNLRLGDVIAILNPEVLPWRPSGRGNFIKSFNLRISHDFKCILEIGSSRDLGWCPIVNKKTHKKCGSPINISLHKCCDYHREVQFRGTSAKRIELNGGYALGAPTKVDSQPSLYKAKGENGFNIIKGTRKRLSEEEERLKKSSHNFTNSNSAKAFFDEKFQNPDMLANLDNKRRKIIETKKSTALSRELGKIMRRRESSGLEDKSVGERQKMKRTTESALQTGLIQRLGFDPTHGKISQVLKSSVSGSEPKNNLLGKKKTVINDLLHYKKEKVILAPSKNEWFKKRSHREEVWQKHFGSKETKETSDGSASDLEII
notes: Mcm10, budding yeast, called full-length in the Co-IP with LexA-tagged constructs; also called LexA-tagged Mcm10; full-length Mcm10; source: yeast two-hybrid fusion (pBTM116); also overexpressed in yeast, in whole cell extract, for Co-IP
reduction of binding relative to wild-type Mcm10: ~85%
